The values below come from the nanobody polyreactivity screen of Harvey et al. (2022).

The series is described as follows: yeast display, Sf9 membrane polyspecificity reagent, FACS + sequencing; frameworks hold sequencing errors. The gist of the method:
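Nanobodies came from a synthetic yeast display library in Saccharomyces cerevisiae BJ5465, induced with galactose for 36–48 hours and stained for 1 hour at 4 °C with 10% biotinylated, detergent-solubilized Sf9 membrane reagent. Cells were enriched on streptavidin microbeads and then FACS-sorted, with low and high (top ~1%) gates set on anti-HA fluorescence for expression and streptavidin fluorescence for reagent binding. Each polyreactivity label reflects the gate a clone came from. Genes were amplified by colony PCR, sequenced by MiSeq 2 × 250 and filtered by CDR length.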
Turning to “QVQLVESGGGLVQAGGSLRLTCAASGRIFGTNAMGWYRQAPGKERELVADITSGGSTNYADSVKGRFTISRDNAKNTVYLLMNSLKPEDTAVYYCAADVIGDLRWYRDEYWGQGTQVTVSS”, the “polyreactivity (PSR sort gate)” value is given as “low polyreactivity”.

As for “QVQLVESGGGLVQAGGSLRLTCAASGRIFGVYVMGWYRQAPGKERELVAAISWGGGTYYADSVKGRFTISRDNAKNNVYLQMNSLKPEDTSVYYCNAESYYTMYYWGQGTQVNVSS”, the “polyreactivity (PSR sort gate)” value was “low polyreactivity”.

As to “QVQLVESGGGLVQAGGSLRLTCAASGRIFNAYAMGWYRQAPGKEREFVAAISYTVGSTYYADTVKGRFTISRDNAKITVNLQMISLKPEDTAVYYCAATGWDYYGGYDYWGQGTQVTVSS”, the “polyreactivity (PSR sort gate)” value is reported as “high polyreactivity”.

Take “QVQLVESGGGLVQAGGSLRLTCAASGRIFPRNTMGWYRQAPGKERELVAAISVSGGSTYYADSVKGRFTNSRDNAKNTVYLQMNSLKPEDTAVYYWAARSARLEYYYWGQGTQVTVSS”: the “polyreactivity (PSR sort gate)” value is reported as “high polyreactivity”.

“QVQLVESGGGLVQAGGSLRLTCAASGRIFVYNAMGWYRQAPGKESEFVATITSSGGRTYYADSVKGRFTISRDNAKNTVYLQMNSLKTEDTAVYDCAASPHNYGRNTVYRYKYWGQGTQVTVSS”: the “polyreactivity (PSR sort gate)” value is reported as “high polyreactivity”.

With “QVQLVESGGGLVQAGGSLRLTCAASGRIFYHYAMGWYRQATGKERELVATISGAGSTHYADSVKGRFTISRDNAKNTVYLQMNSLKAEDTAVYYCNADTYLIRYWSMLEYWGQGTQVTVSS”, the “polyreactivity (PSR sort gate)” value was “low polyreactivity”.

“QVQLVESGGGLVQAGGSLRLTCAASGRILDRYVMGWYRQAPGKERELVAAISQSGRGTYYADSVKGRFTISRDNAKNTVYLQMNSLKPEVTAVYYCAARGTGYHGYGYWGQGSQVTVSS”: the “polyreactivity (PSR sort gate)” value is listed as “high polyreactivity”.

As to “QVQLVESGGGLVQAGGSLRLTCAASGRIYTYNAMGRYRKAPGKERELVATITWRGGGTYYADSVKGRFTISRDNAKNTVYLQMNSLKPEDTAVYYCIRRLPGDGQYGYRRFDYWGQGTQVTVSS”, the “polyreactivity (PSR sort gate)” value is recorded as “low polyreactivity”.

For “QVQLVESGGGLVQAGGSLRLTCAASGRTFARNAMGWYRQAPGKERELVAAITRSGGSTYYADSVKGRFTISRDNAKNTVYLQMNSLKPEDTAVYYCAADVRTYRGYYWKAFDYWGQGTQVTVSS”, the “polyreactivity (PSR sort gate)” value is “high polyreactivity”.

With “QVQLVESGGGLVQAGGSLRLTCAASGRTFFYNAMGWYRPAPGKERELVAAISWSGGRTYYADSVKGRFTISRDNAKNTVYLQMNSLKPEDTAVYYCASTGFYSSHYHLDYWGQGTQLTVSS”, the “polyreactivity (PSR sort gate)” value is “high polyreactivity”.

In the case of “QVQLVESGGGLVQAGGSLRLTCAASGRTFGTYAMGWSRQAPGKERELVAVITNGGGTYYADSVKGRFTISRDNAKNTVYLQMNSLKPEDTAVYYCNTDRYGLRRWVYSYWGGYDYWGQGTQVTVSS”, the “polyreactivity (PSR sort gate)” value was “low polyreactivity”.

Turning to “QVQLVESGGGLVQAGGSLRLTCAASGRTFKGYAMGWYRQEPGKERELVAAISYRGGSTYYADSVKGRFTISRDNAKNTVYLQMNSLKPEDTAVYYCAAQGRSKYRGYYYWGQGTQVTVSS”, the “polyreactivity (PSR sort gate)” value is given as “high polyreactivity”.

For the sequence “QVQLVESGGGLVQAGGSLRLTCAASGRTFPGNAMGWYRQAPGKERELVAAISWSVDRTYYADSVKGRFTISRDNAKNTVYLQMNSLKPEDTAVYYCAAVHWWSSSLRMYYWGQGTQVTVSS”, the “polyreactivity (PSR sort gate)” value is “low polyreactivity”.

As to “QVQLVESGGGLVQAGGSLRLTCAASGRTFQYYVMVWYRQAPGKEREFVAAISTSGGRTYYADSVKGRFTISRDNAKNSVYLQMNSLKPEATAVYYCAATGFSYRYFQTRDYWGQGTQVTVSS”, the “polyreactivity (PSR sort gate)” value is recorded as “high polyreactivity”.

As for “QVQLVESGGGLVQAGGSLRLTCAASGRTFRIYAMGWYRQAPGKERELVAAITRRGGSTYYADSVKGRFTISLDNAKNTVNLQMNSLKPEDTAVYYCAAELRYGYLYPYDSWGQGTQVTVSS”, the “polyreactivity (PSR sort gate)” value is on record as “high polyreactivity”.

As to “QVQLVESGGGLVQAGGSLRLTCAASGRTFRSYAMGWYRQAPGKERELVAAISDGGSTNYADSVKGRFTISRDNAKNTVYLQMNSLKPEDTAVYYCAAEIFFAVFRFYYWGQGTQVTVSS”, the “polyreactivity (PSR sort gate)” value is reported as “low polyreactivity”.

“QVQLVESGGGLVQAGGSLRLTCAASGRTLRNYAMGWYRQPPGKERELVATITYRGGSTYYADSVKGRFTISRDNAKNTVYLKRNCLKPEDTAVYYCAARTSSYSFQYAYNYWGQGTQVTVSS”: the “polyreactivity (PSR sort gate)” value is “high polyreactivity”.

“QVQLVESGGGLVQAGGSLRLTCAASGRTLVPYVMGWYRQAPGKERELVASITSGGSTYYADSVKGRFTISRDNAKNTVYLQMNSLKPEDTAVYYCATRQSAERWGYYYWGQGTQVTVSS”: the “polyreactivity (PSR sort gate)” value is given as “low polyreactivity”.

For the sequence “QVQLVESGGGLVQAGGSLRLTCAASGSIFGTYAMGWYRQAPGKERQLVAAISWSDGSTYYADSVKGRFTISRDTAKNTFYLQMNSRKPEDTAVEYCAKVYRSIGPNVSRYGLSYYDWGHGTQVTVSS”, the “polyreactivity (PSR sort gate)” value is recorded as “low polyreactivity”.

Turning to “QVQLVESGGGLVQAGGSLRLTCAASGSIFNGYAMGCYRQAPGKERELVAAIRTRGGSTYYADSVKGRFTISRDIAMNTVYLQMNSLKPEDTAVYYCAKRYFGWYGNFDYWGQGTQVTVSS”, the “polyreactivity (PSR sort gate)” value was “high polyreactivity”.

Regarding “QVQLVESGGGLVQAGGSLRLTCAASGSIFRDNVMGWSRQAPGKERELVAAISKRGGSTYYADSVKGRFTISRDNAKNTVYLQMNSLKPEDTAVYYCAAPQGRSHYYRYDYWGQGTQVTVSS”, the “polyreactivity (PSR sort gate)” value is reported as “high polyreactivity”.

For the sequence “QVQLVESGGGLVQAGGSLRLTCAASGSIFRRNAMGWYRQAPGKERELVAAISWSGGDTYYADSVKGRFTISRDNAKNTVYLQMNSLKPEDTAVYYCAAEYYRPYYGESYDYWGQGTQVTVSS”, the “polyreactivity (PSR sort gate)” value is “high polyreactivity”.

In the case of “QVQLVESGGGLVQAGGSLRLTCAASGSIFRYYAMGWYRQAPGKERELVAAISRSGGSTYYADSVKGRFTISRDNAKNTVYLQMNSLKPEDTAVYYCAAEYRVRSQGYDYWGQGTQVTVSS”, the “polyreactivity (PSR sort gate)” value is listed as “high polyreactivity”.

As to “QVQLVESGGGLVQAGGSLRLTCAASGSIFSYYAMGWYRQAPGKERELVAAITSGGGTYYADSVKGRFTISRDNAKNTVFLQMNSLKPEDTAVYYCAKDGYPDQDVQVFNDSDYWGQGTQVTVSS”, the “polyreactivity (PSR sort gate)” value is “low polyreactivity”.

With “QVQLVESGGGLVQAGGSLRLTCAASGSIFVGYAMGWYRQAPGKERELVAAITGSGTRTYYADSVKGRFTISRDNAKNTVYLQMNSLKPEDTAVYYCAADYFRYYPYDYWGQGTQVTVSS”, the “polyreactivity (PSR sort gate)” value was “low polyreactivity”.

Consider “QVQLVESGGGLVQAGGSLRLTCAASGSIFVNNAMGWYRQAPGKERELVAAISSRSSRTFYADSVKGRFTISRDNAKNTVYLQMNSLKPEDTAVYYCAVKKRAPDGDYWGQGTQVTVSS”, for which the “polyreactivity (PSR sort gate)” value is “high polyreactivity”.

For the sequence “QVQLVESGGGLVQAGGSLRLTCAASGSIFVQNAMGWYRQEPGKERELVATISRRGGSTYYADSVKGRFTISRDNAKNTVYLQMNSLKPEDPAVYYSAARKLRTLWGYWGQGTQVTVSS”, the “polyreactivity (PSR sort gate)” value is recorded as “high polyreactivity”.

Regarding “QVQLVESGGGLVQAGGSLRLTCAASGSIFYSYAMGWYRQAPGKERELVAAISWDASTYYADSVNGRFTISRDNAKNTVYLQMHSLKPEDSAVYYCNADIPYFFVFDAYDYWGQGTQVTVSS”, the “polyreactivity (PSR sort gate)” value is given as “low polyreactivity”.

Turning to “QVQLVESGGGLVQAGGSLRLTCAASGSIFYYYAMGWYRQAPGKERELVASITYRGGSTYYADSVKGRFTISRDYAKNTVYLLMNSLKPEDTAFYYCAVVGYRYRHYYWGQGTQVTVSS”, the “polyreactivity (PSR sort gate)” value is “high polyreactivity”.

In the case of “QVQLVESGGGLVQAGGSLRLTCAASGSILYYNAMGWYRQAPGKEREFVAAISDSGSSTYYADSVKGRFTISRDNAKNTVYLQMNSLKPEDTAVYYCNAYQGDKYDSWGQGTQVTVSS”, the “polyreactivity (PSR sort gate)” value is given as “low polyreactivity”.

Turning to “QVQLVESGGGLVQAGGSLRLTCAASGSIYVGNAMGWNRHAPGKEREFVAAISRSGGRTYYADSVKGRFTISRDNEKNTVYLQMNSLKPEDTAVYYCNAYGWEQRQMDSWGQGTQVTVSS”, the “polyreactivity (PSR sort gate)” value is “high polyreactivity”.

For the sequence “QVQLVESGGGLVQAGGSLRLTCAASGSNFVYNAMGWYRQAPGKERELVAAISSRGGSTYYADSVKGRFTISRDNAKNTVYLQMKSLKPEDTAVYYCNAYGPRAYRGGSWGQGTQVTVSS”, the “polyreactivity (PSR sort gate)” value was “high polyreactivity”.

With “QVQLVESGGGLVQAGGSLRLTCAASGSSLDHYTMGWYRQAPGKEMELVAGIRWTGGRTYYADSVKGRFTISRDNAKNTVYLQMNSLKQEDNAVYYCAKTGWYGPVLRFYYWGQGTQVTVSS”, the “polyreactivity (PSR sort gate)” value is given as “high polyreactivity”.

In the case of “QVQLVESGGGLVQAGGSLRLTCAASGSTFGWYAMGWYRQAPGKERELVAAIRSNGGSTYYADSVKGRFTISRDNAKNTVYLHMNSLKPEDTAVYYCAGRGSPSKHHWYDYWGQGTQVNVSS”, the “polyreactivity (PSR sort gate)” value was “low polyreactivity”.

As for “QVQLVESGGGLVQAGGSLRLTCAASGSTFRWYAMGWYRQAPAKERELVAAIRSAGSTDYADSVKGRFTISRDNAKNTVYLQINSLKPEDTAVYYCAAYFRYRSSRYGYWGQGTQVTVSS”, the “polyreactivity (PSR sort gate)” value is listed as “high polyreactivity”.

For “QVQLVESGGGLVQAGGSLRLTCAASGSTFRYYDMGWYRQAPGKERELVAAITTSGDDTYYADSVKRRFTISRDNAKNSVYLPMNSLKPEDTAVYYCAADGYGGHKYELESWGQGTQVTVSS”, the “polyreactivity (PSR sort gate)” value was “low polyreactivity”.

As to “QVQLVESGGGLVQAGGSLRLTCAASGSTFSYYAMGWYRQPPRKERELVAVITWSGASTYYADSVKGRFTISRDNAKNTVYLQMNSLKPEDTAVYYCAADKYLSYDYWGQGTQVSVSS”, the “polyreactivity (PSR sort gate)” value is on record as “low polyreactivity”.

Regarding “QVQLVESGGGLVQAGGSLRLTCAASGSTFYFNAIGWYRQAPGKESELVAAISGGGRTNYADSVKGRFTISRDNAKNTVYLQMNSLKPEDTAVYYCAARNRGLRLSNYFGGNYNRDYWGQGTQVTVSS”, the “polyreactivity (PSR sort gate)” value is “low polyreactivity”.

As to “QVQLVESGGGLVQAGGSLRLTCAASGSTFYRNAMGWYRQAPVKERELVATISSSDGSTYYADSVKGRFTISRDNAKNTVYLQMNSLKPEDTAVYYCATEIYYTKTYDSWGQGTQVTVSS”, the “polyreactivity (PSR sort gate)” value is recorded as “low polyreactivity”.

On to “QVQLVESGGGLVQAGGSLRLTCAASGSTFYYNAMGWYRQAPAKERELVADISWRGGITYYADSVKGRFTISRDNAKNTVYLQMNSLKPEDTAVYYFKADAESFDDGYWGQGTQVTVSS”, for which the “polyreactivity (PSR sort gate)” value was “low polyreactivity”.

Take “QVQLVESGGGLVQAGGSLRLTCAASGSTIADNAMGWYRPAPGTERELVAGITRRGGSTYYADSVKGRFTISRDNAKNTVYLQMNSLKPEDTAVYYCNKGPVRGRYSVWPIEMDYWGQGTQVTVSS”: the “polyreactivity (PSR sort gate)” value is listed as “low polyreactivity”.
